Results: publication PMC11112126

Legend:
[1] = target: SH3P2 (Arabidopsis thaliana) (UniProt Q8VWF1); assay: mass photometry; SH3P2 at 75 nM; 25 mM HEPES pH 7.5, 200 mM NaCl, 25 mM KH2PO4 pH 8.0; monomer to dimer
[2] = target: SH3P2 (Arabidopsis thaliana) (UniProt Q8VWF1); assay: mass photometry; SH3P2 at 100 nM; 25 mM HEPES pH 7.5, 200 mM NaCl, 25 mM KH2PO4 pH 8.0; monomer to dimer

- percent of dimers at 75 nM [1]: 60%
- percent of dimers at 100 nM [2]: 85%
- stoichiometry N [2]: 2
Substance: SH3P2 (from UniProt Q8VWF1 1-368) (natural protein)
